In this assay the target is SARS-CoV RBD蛋白 (SARS-CoV, UniProt P59594 306-527). The assay can be described thus: SPR, Biacore 8K, RBD on SA chip, antibody as analyte. On the technique in general: In SPR one partner is held on a chip, and binding of the other changes the refractive index at the surface.

B1: 抗体IMCAS-364 (antibody, V domains shown)
VH: QVQLQESGGGVVQPGRSLRLSCAASGFTFSRYGMHWVRQAPGKGLEWVAVIWYDGSNKYYADSVKGRFTISRDNSKNTLYLQMNSLRADDTAVYYCAKQEGTYCSGGSCYSGLDYWGQGTLVTVSS
VL: not shown
Broadly, the Kd is a measure of binding affinity in units of concentration. Low readings indicate tighter binding, high ones weaker binding. The molecule B1 gave an equilibrium dissociation constant (Kd) of 8.17 nM.

Values taken from CN114456264A (INST OF MICROBIOLOGY OF CHINESE ACADEMY OF SCIENCES, dated 2022).
